Laboratory results reported in patent EP4574844A1 (Numab Therapeutics AG, dated 2025).

Experiments:
[1] = biological target: T1, human CD47 on the cell surface (human, UniProt Q08722 19-323); assay: flow cytometry, NCI-H292 cells; competitor biotinylated SIRPα; by the text maximum inhibition normalised to PRO2777
T1 construct: whole, on cells; also called plasma membranous CD47; CHO CD47 cells

[2] = biological target: T1, human CD47 on the cell surface; assay: flow cytometry, CHO CD47 cells; competitor biotinylated SIRPα; column head prints EC50
[3] = biological target: T1, human CD47 on the cell surface; assay: flow cytometry, CHO CD47 cells; competitor biotinylated SIRPα; by the text maximum inhibition normalised to PRO2777
[4] = biological target: T1, human CD47 on the cell surface; assay: flow cytometry, HT-29 cells (CD47+, no PD-L1)
recombinant human PDL1 [5] = biological target: T2, recombinant human PDL1 (human, UniProt Q9NZQ7 19-238, limits assumed); assay: SPR, antigen immobilised, antibody as analyte
T2 construct: SPR antigen; also called CD274; B7-H1

recombinant human CD47 = recombinant human CD47 (human, UniProt Q08722 19-139, limits assumed); assay: SPR, antigen immobilised, antibody as analyte
[6] = biological target: T3, human PD-L1 on the cell surface (human, UniProt Q9NZQ7 19-290); assay: cell-based or functional assay
[7] = biological target: T1, human CD47 on the cell surface; assay: cell-based or functional assay
[8] = biological target: T3, human PD-L1 on the cell surface; assay: cell-based or functional assay; remark: listed apart in the source
[9] = biological target: T1, human CD47 on the cell surface; assay: flow cytometry, NCI-H292 cells (CD47+ PD-L1+); competitor biotinylated SIRPα; column head prints EC50
[10] = biological target: T1, human CD47 on the cell surface; assay: flow cytometry, human erythrocytes
[11] = biological target: T4, human LILRB2 on the cell surface (human, UniProt Q8N423 22-597); assay: cell-based or functional assay
T4 sequence (Q8N423 22-597): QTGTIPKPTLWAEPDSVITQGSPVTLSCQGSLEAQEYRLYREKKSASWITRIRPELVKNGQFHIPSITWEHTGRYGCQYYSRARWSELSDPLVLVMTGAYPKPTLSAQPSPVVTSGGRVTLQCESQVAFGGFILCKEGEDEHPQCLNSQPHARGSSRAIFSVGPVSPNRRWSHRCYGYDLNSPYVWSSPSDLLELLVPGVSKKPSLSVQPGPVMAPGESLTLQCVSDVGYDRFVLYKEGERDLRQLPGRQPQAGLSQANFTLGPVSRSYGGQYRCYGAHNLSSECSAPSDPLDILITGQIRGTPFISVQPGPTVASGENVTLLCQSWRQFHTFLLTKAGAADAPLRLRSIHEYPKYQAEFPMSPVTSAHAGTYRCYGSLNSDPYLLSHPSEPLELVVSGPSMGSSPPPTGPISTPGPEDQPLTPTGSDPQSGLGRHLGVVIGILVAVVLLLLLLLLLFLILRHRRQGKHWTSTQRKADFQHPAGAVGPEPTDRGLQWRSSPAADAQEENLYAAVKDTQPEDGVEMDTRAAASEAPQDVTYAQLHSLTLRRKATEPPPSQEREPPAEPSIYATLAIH

[12] = biological target: T4, human LILRB2 on the cell surface; assay: cell-based or functional assay; remark: listed apart in the source
[13] = biological target: T5, LILRB4 on transiently transfected CHO cells (UniProt Q8NHJ6 22-448); assay: CELISA, transiently transfected CHO cells
T5 construct: whole, on cells; V5 tag at the N-terminus

[14] = biological target: T6, LILRA6 on transiently transfected CHO cells (UniProt Q6PI73 24-481); assay: CELISA, transiently transfected CHO cells
T6 construct: whole, on cells; V5 tag at the N-terminus
T6 sequence (Q6PI73 24-481): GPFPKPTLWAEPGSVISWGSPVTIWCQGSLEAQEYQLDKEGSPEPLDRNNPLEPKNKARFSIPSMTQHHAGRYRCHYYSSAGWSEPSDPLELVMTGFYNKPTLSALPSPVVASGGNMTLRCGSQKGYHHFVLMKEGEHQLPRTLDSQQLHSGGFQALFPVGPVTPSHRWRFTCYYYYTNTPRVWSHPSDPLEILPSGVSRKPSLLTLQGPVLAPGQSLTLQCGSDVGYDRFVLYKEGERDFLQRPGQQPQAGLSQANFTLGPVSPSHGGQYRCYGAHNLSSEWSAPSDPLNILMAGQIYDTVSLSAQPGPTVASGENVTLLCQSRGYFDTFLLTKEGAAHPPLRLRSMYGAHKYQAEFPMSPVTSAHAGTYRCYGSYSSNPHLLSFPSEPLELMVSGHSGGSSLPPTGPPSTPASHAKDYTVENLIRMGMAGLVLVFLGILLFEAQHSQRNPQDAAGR

[15] = biological target: T7, LILRA1 on transiently transfected CHO cells (UniProt O75019 17-489, limits assumed); assay: CELISA, transiently transfected CHO cells
T7 construct: whole, on cells; V5 tag at the N-terminus

[16] = biological target: T8, LILRA5 on transiently transfected CHO cells (UniProt A6NI73 42-299); assay: CELISA, transiently transfected CHO cells
T8 construct: whole, on cells; V5 tag at the N-terminus
T8 sequence (A6NI73 42-299): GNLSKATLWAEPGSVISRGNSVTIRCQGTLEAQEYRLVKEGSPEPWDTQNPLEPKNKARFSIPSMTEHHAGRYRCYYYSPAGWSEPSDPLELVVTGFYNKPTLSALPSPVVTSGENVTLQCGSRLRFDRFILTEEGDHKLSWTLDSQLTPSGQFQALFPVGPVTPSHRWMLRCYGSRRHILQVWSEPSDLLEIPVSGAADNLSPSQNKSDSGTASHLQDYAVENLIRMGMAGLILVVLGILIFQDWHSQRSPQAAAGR

[17] = biological target: T9, LILRB3 on transiently transfected CHO cells (UniProt O75022 24-631, limits assumed); assay: CELISA, transiently transfected CHO cells
T9 construct: whole, on cells; V5 tag at the N-terminus

[18] = biological target: T10, LILRA2 on transiently transfected CHO cells (UniProt Q8N149 24-483); assay: CELISA, transiently transfected CHO cells
T10 construct: whole, on cells; V5 tag at the N-terminus
T10 sequence (Q8N149 24-483): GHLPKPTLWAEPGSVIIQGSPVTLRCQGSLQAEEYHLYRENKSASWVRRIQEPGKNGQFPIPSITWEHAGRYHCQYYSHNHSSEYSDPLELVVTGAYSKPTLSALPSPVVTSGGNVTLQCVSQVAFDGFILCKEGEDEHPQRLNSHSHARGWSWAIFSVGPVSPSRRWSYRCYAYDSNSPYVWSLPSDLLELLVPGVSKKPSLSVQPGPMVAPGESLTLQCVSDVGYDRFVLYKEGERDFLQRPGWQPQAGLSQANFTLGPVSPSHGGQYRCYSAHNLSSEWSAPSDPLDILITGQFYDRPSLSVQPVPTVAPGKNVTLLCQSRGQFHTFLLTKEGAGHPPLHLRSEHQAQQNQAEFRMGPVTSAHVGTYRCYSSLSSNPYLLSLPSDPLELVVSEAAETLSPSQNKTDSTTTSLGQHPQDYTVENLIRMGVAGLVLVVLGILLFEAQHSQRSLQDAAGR

[19] = biological target: T11, LILRB1 on transiently transfected CHO cells (UniProt Q8NHL6 24-650); assay: CELISA, transiently transfected CHO cells
T11 construct: whole, on cells; V5 tag at the N-terminus
T11 sequence (Q8NHL6 24-650): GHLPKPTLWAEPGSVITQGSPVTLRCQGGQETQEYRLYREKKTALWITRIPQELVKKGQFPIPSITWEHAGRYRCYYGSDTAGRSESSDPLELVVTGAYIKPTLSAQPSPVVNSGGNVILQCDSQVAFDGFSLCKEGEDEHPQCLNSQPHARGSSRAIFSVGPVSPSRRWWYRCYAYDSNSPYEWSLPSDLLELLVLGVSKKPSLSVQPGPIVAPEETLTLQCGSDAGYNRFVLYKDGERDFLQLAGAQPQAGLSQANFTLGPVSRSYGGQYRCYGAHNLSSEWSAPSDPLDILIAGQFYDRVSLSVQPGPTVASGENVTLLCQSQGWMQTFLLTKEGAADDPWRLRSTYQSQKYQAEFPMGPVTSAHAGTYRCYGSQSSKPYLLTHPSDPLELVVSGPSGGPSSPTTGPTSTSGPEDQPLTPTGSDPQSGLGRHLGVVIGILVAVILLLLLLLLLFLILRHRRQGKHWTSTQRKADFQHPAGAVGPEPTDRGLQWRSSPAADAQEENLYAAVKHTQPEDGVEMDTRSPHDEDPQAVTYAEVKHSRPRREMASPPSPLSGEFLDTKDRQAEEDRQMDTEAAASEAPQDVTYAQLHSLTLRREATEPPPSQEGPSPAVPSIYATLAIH

[20] = biological target: T12, LILRA3 on transiently transfected CHO cells (UniProt Q8N6C8 24-439); assay: CELISA, transiently transfected CHO cells
T12 construct: whole, on cells; V5 tag at the N-terminus
T12 sequence (Q8N6C8 24-439): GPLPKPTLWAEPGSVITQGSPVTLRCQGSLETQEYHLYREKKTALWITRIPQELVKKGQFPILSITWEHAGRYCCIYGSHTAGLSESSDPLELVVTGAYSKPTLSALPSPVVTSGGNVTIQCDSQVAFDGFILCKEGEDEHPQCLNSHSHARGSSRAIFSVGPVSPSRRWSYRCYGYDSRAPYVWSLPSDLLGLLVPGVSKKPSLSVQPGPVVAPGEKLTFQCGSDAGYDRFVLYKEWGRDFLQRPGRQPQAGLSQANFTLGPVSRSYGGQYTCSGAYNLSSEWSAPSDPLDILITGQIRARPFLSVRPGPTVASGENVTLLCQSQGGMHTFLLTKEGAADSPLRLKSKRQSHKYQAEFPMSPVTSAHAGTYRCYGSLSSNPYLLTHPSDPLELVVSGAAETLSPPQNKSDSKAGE

[21] = biological target: T13, LILRA4 on transiently transfected CHO cells (UniProt P59901 24-499); assay: CELISA, transiently transfected CHO cells
T13 construct: whole, on cells; V5 tag at the N-terminus
T13 sequence (P59901 24-499): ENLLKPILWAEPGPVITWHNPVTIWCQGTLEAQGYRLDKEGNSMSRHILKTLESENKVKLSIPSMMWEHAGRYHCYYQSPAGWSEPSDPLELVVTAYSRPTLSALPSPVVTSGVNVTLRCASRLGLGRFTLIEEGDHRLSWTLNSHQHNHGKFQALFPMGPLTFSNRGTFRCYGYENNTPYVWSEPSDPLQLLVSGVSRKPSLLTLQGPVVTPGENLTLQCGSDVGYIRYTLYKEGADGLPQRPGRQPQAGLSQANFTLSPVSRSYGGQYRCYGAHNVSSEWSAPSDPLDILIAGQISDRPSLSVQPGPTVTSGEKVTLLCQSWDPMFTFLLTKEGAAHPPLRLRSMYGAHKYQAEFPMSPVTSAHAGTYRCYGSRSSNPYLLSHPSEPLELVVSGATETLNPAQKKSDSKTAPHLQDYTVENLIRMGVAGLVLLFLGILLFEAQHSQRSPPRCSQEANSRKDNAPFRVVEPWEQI

[22] = biological target: T14, LILRB5 on transiently transfected CHO cells (UniProt O75023 24-590, limits assumed); assay: CELISA, transiently transfected CHO cells
T14 construct: whole, on cells; V5 tag at the N-terminus
T14 sequence (O75023 24-590 limits assumed): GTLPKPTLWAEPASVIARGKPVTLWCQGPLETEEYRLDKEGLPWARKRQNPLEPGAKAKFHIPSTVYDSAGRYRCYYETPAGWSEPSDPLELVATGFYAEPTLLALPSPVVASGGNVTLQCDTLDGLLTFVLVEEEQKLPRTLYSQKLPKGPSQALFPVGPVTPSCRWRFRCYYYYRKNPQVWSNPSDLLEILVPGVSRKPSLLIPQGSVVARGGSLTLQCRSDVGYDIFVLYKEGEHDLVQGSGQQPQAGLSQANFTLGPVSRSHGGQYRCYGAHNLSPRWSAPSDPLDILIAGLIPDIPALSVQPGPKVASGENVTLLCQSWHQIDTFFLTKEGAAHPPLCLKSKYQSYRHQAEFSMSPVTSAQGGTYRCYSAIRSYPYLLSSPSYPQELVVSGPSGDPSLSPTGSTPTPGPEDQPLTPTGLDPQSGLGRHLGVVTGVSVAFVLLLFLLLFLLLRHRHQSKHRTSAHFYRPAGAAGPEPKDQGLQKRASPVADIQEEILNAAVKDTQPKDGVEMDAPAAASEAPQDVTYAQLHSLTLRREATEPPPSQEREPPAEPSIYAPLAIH

[23] = biological target: T3, human PD-L1 on the cell surface; assay: cell-based or functional assay; remark: listed apart in the source
Fc-tagged human PDL2 = biological target: T15, Fc-tagged human PDL2 (human, UniProt Q9BQ51 20-220, limits assumed); assay: SPR, Fc-tagged human PDL2 captured, scFv as analyte
T15 sequence (looked up): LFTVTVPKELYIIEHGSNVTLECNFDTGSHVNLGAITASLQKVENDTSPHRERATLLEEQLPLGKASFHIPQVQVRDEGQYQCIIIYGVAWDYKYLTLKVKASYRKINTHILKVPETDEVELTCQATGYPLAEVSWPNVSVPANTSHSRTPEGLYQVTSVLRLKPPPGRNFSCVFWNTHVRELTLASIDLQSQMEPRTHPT

recombinant human PDL1 [24] = biological target: T2, recombinant human PDL1; assay: SPR
[25] = biological target: T16, recombinant cynomolgus PDL1 (cynomolgus monkey, UniProt G7PSE7 19-238); assay: SPR
T16 construct: also called cynom; PDL1
T16 sequence (G7PSE7 entry or part of it): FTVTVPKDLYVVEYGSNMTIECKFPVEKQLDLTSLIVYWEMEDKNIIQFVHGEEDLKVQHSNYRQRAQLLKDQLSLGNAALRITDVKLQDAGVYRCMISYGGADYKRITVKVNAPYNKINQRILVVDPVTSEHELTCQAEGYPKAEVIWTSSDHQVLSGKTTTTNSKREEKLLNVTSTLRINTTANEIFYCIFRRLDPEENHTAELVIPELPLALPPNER

B1: PRO3790 (bispecific antibody, human IgG1, kappa)
chain: DVQMTQSPSSLSASVGDRVTITCQASQSISSWVSWYQQKPGKPPKLLIYRGGYLESGVPSRFSASGSGTDFTLTISSLQPEDFATYYCQSTDSSTYGGAFGCGTKVTVLGGGGGSGGGGSGGGGSGGGGSQQVVESGGGLVQPGGSLRLSCAVSGIDLNSYAMTWVRQAPGKCLEWIGYIGSASSTYYASWASGRFTISKDNSKNTVYLQMNSLRAEDSAVYFCARGSTYINIWGQGTLVKVSSEPKSSDKTHTCPPCPAPELLGGPSVFLFPPKPKDTLMISRTPEVTCVVVDVSHEDPEVKFNWYVDGVEVHNAKTKPREEQYNSTYRVVSVLTVLHQDWLNGKEYKCKVSNKALPAPIEKTISKAKGQPREPQVYTLPPCREEMTKNQVSLSCAVKGFYPSDIAVEWESNGQPENNYKTTPPVLDSDGSFFLVSKLTVDKSRWQQGNVFSCSVMHEALHNHYTQKSLSLSPGK
heavy: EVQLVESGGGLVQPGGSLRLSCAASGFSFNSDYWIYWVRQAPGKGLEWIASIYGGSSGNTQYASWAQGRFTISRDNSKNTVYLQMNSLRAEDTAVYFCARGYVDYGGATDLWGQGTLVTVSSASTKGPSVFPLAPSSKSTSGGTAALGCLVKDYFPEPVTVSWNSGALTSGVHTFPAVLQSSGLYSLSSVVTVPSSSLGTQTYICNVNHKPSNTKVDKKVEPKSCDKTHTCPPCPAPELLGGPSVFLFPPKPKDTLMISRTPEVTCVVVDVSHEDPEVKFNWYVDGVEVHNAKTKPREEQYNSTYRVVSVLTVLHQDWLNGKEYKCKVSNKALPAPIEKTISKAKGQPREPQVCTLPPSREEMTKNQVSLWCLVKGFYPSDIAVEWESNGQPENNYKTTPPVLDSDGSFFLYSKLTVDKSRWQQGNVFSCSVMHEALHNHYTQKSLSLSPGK
light: DIQMTQSPASLSASVGDRVTITCQASQSIGTYLAWYQQKPGKPPKLLIYRAFILASGVPSRFSGSGSGTDFTLTISSLQPEDFATYYCQSNFYSDSTTIGPNAFGQGTKVEIKRTVAAPSVFIFPPSDEQLKSGTASVVCLLNNFYPREAKVQWKVDNALQSGNSQESVTEQDSKDSTYSLSSTLTLSKADYEKHKVYACEVTHQGLSSPVTKSFNRGEC
notes: anti-CD47 x PDL1: 70-26-B04-sc03 scFv on hole-Fc, 37-20-B03-sc09.1 Fab on knob-Fc
B1 was tested, and the “Rel. maximum binding (max. MFI sample / max. MFI magrolimab)” value [1] was 92.5, the IC50 [2] was 110 nM and the “Rel. maximum binding (max. MFI sample / max. MFI magrolimab)” value [3] was 87. The EC50 [4] was over 100 nM, the Kd (recombinant human PDL1 [5]) was 0.0759 nM and the koff (recombinant human PDL1 [5]) was 4.19e-05 s⁻¹. For the same binder, the kon (recombinant human PDL1 [5]) was 552000 M⁻¹ s⁻¹, the Kd (recombinant human CD47) was 35 nM and the koff (recombinant human CD47) was 0.0235 s⁻¹. For the same binder, the kon (recombinant human CD47) was 672000 M⁻¹ s⁻¹, the “PD-L1 driven EC50 [nM], phagocytosis of H292 cells” value [6] was 0.04 nM and the “CD47 driven EC50 [nM], phagocytosis of H292 cells” value [7] was 31.2 nM. For the same binder, the “EC50 [nM], PD-L1 / PD-1 transgenic NFAT reporter gene assay” value [8] was 0.272 nM, the IC50 [9] was 0.068 nM and the EC50 [10] was 98.8 nM.

B2: PRO4710 (antibody, human IgG4 S228P, kappa, V domains shown)
VH: QQLVESGGGLVQPGGSLRLSCAASGFSFTNNYYMCWVRQAPGKGLEWIACMLVGAWGNTYYASWANGRFTISKDNSKNTVYLQMNSLRAEDTAVYFCARARDYTWTLGGDPETSGFNLWGQGTLVTVSS
VL: DVQMTQSPSSLSASVGDRVTITCQASQSIGSNLAWYQQKPGKPPKLLIYKGGTLESGVPSRFSGSGSGTDFTLTISSLQPEDFATYYCQSTAGSSRSGNYGYVFGQGTKVEIKR
notes: anti-LILRB2 IgG4; also called 68-18-E11-sc07 IgG4; IgG4 variant of scFv PRO3744
In the case of B2, the “IL-1β EC50 [nM], LPS-driven cytokine secretion” value [11] is reported as 0.248 nM, the “IL-6 EC50 [nM], LPS-driven cytokine secretion” value [11] is reported as 0.153 nM and the “TNF-α EC50 [nM], LPS-driven cytokine secretion” value [11] is reported as 0.169 nM. For the same binder, the “CD86 EC50 [nM], re-polarization of M2 macrophages” value [12] was 0.119 nM, the “CD163 EC50 [nM], re-polarization of M2 macrophages” value [12] was 0.072 nM and the “CD206 EC50 [nM], re-polarization of M2 macrophages” value [12] was 0.203 nM. B2: no binding (tested: up to 100 nM) [13]; no binding (tested: up to 100 nM) [14]; no binding (tested: up to 100 nM) [15]. B2: no binding (tested: up to 100 nM) [16]; no binding (tested: up to 100 nM) [17]; no binding (tested: up to 100 nM) [18]. B2: no binding (tested: up to 100 nM) [19]; no binding (tested: up to 100 nM) [20]; no binding (tested: up to 100 nM) [21]. B2: no binding (tested: up to 100 nM) [22].

B3: PRO1347 (scFv)
scFv: DIQMTQSPASLSASVGDRVTITCQASQSIGTYLAWYQQKPGKPPKLLIYRAFILASGVPSRFSGSGSGTDFTLTISSLQPEDFATYYCQSNFYSDSTTIGPNAFGTGTKVTVLGGGGGSGGGGSGGGGSGGGGSEVQLVESGGGLVQPGGSLRLSCAASGFSFNSDYWIYWVRQAPGKGLEWIACIYGGSSGNTQYASWAQGRFTISRDNSKNTVYLQMNSLRAEDTAVYFCARGYVDYGGATDLWGQGTLVTVSS
notes: anti-PDL1 scFv; also called 37-20-B03-sc09
For B3, the “PDL1/PD-1 EC50 [nM], NFAT reporter gene assay” value [23] was 0.28 nM, the “PDL1/PD-1 Max. inhibition (rel. to avelumab) [%]” value [23] was 100% and the binding result (Fc-tagged human PDL2) was “no binding (tested: 180 nM)”. For the same binder, the Kd (recombinant human PDL1 [24]) was 0.0109 nM, the koff (recombinant human PDL1 [24]) was 6.64e-05 s⁻¹ and the kon (recombinant human PDL1 [24]) was 7.38e+06 M⁻¹ s⁻¹. It also gave a Kd [25] of 0.0127 nM, a koff [25] of 8.77e-05 s⁻¹ and a kon [25] of 6.88e+06 M⁻¹ s⁻¹.
